Test results as given in patent US20140348834A1 (published 2014).
Where two headings read alike, the source gives them in different places.

Tests used:
[1] = molecular target: T1, human IL-17A (human, UniProt Q16552 24-155); test: ELISA, captured antibody, serially diluted biotin-IL-17 (Example 1.5.1)
T1 construct: Biotinylated in the ELISA; also called hIL-17; Hu IL-17A
T1 sequence (Q16552 24-155 limits assumed): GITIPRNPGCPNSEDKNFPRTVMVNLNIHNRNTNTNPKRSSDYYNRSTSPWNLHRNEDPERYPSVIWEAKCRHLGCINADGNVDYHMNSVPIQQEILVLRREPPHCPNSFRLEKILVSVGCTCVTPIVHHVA

[2] = molecular target: T2, cynomolgous monkey (cyno) IL-17A (cynomolgus monkey, UniProt A0A2K5TTB0 24-155); test: cell-based or functional assay
T2 sequence (A0A2K5TTB0 entry or part of it): as the sequence (Q16552 24-155 limits assumed) above, with T3A, P8S, N34S, I77V, N78K, P104R counted along it

[3] = molecular target: T3, human IL-17A/F (human, UniProt Q16552 24-155; Q96PD4 31-163); test: cell-based or functional assay
T3 sequence (Q16552 24-155 limits assumed, chain 1 of 2): as the sequence (Q16552 24-155 limits assumed) above
T3 sequence (Q96PD4 31-163 limits assumed, chain 2 of 2): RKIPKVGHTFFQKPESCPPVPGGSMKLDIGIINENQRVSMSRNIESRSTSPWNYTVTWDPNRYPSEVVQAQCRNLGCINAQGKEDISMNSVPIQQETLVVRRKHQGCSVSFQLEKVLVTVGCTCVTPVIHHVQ

[4] = molecular target: T1, human IL-17A; test: cell-based or functional assay
[5] = molecular target: T4, rat IL-17A (rat, UniProt Q61453 18-150, limits assumed); test: cell-based or functional assay
T4 sequence (looked up): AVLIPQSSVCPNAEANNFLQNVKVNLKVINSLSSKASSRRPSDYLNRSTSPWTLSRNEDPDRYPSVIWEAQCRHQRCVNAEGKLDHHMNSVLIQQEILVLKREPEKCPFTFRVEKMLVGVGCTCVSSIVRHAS

[6] = molecular target: T5, cynomolgus monkey IL-17A (cynomolgus monkey, UniProt A0A2K5TTB0 24-155); test: cell-based or functional assay
T5 sequence (A0A2K5TTB0 entry or part of it): as the sequence (Q16552 24-155 limits assumed) above, with T3A, P8S, N34S, I77V, N78K, P104R counted along it

[7] = molecular target: T6, human IL-17A (human, UniProt Q16552 24-155); test: cell-based or functional assay; remark: listed apart in the source
T6 sequence (Q16552 24-155): as the sequence (Q16552 24-155 limits assumed) above

[8] = molecular target: T6, human IL-17A; test: hIL17A ELISA
[9] = molecular target: T7, human IL-17A/F (human, UniProt Q16552 24-155; Q96PD4 31-163); test: SPR (Biacore 3000), antibody captured by anti-Fc, antigen in solution;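 further: purified recombinant IL-17 antigens flowed over captured antibodies in HBS-EP buffer, global Langmuir one-to-one fit of association and dissociation phases, KD derived from koff over kon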
T7 construct: Recombinant; biotinylated in the ELISA; also called hIL-17A/F; HuIL-17A/F
T7 sequence (Q16552 24-155, chain 1 of 2): as the sequence (Q16552 24-155 limits assumed) above
T7 sequence (Q96PD4 31-163, chain 2 of 2): as the sequence (Q96PD4 31-163 limits assumed, chain 2 of 2) above

[10] = molecular target: T8, mouse IL-17A (mouse, UniProt Q62386 26-158, limits assumed); test: as above
T8 construct: Purified recombinant protein in SPR; also called MuIL-17A; murine IL-17A
T8 sequence (looked up): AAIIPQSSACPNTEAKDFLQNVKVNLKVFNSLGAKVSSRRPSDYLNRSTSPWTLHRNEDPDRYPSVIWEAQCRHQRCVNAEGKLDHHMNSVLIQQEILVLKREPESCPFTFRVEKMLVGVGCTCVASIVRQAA

[11] = molecular target: T4, rat IL-17A; test: as above
[12] = molecular target: T5, cynomolgus monkey IL-17A; test: as above
[13] = molecular target: T6, human IL-17A; test: as above
[14] = molecular target: T9, rat IL-17A (rat, UniProt Q61453 18-150, limits assumed); test: cell-based or functional assay; remark: listed apart in the source
T9 sequence (looked up): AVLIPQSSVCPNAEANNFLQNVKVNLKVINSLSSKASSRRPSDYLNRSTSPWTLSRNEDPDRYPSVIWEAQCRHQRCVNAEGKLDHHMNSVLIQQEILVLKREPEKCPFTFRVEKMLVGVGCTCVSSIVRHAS

[15] = molecular target: rabbit IL-17A (rabbit); test: cell-based or functional assay
[16] = molecular target: T2, cynomolgous monkey (cyno) IL-17A; test: cell-based or functional assay; remark: listed apart in the source
[17] = molecular target: T10, mouse IL-17A (mouse, UniProt Q62386 26-158, limits assumed); test: cell-based or functional assay
T10 sequence (looked up): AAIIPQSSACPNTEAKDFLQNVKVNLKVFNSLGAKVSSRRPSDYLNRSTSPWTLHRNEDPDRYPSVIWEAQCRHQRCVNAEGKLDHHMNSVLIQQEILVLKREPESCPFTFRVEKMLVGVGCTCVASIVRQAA

[18] = molecular target: T3, human IL-17A/F; test: cell-based or functional assay; remark: listed apart in the source
[19] = molecular target: T1, human IL-17A; test: cell-based or functional assay; remark: listed apart in the source

B1: IL17-TN-L7-C8 (antibody, V domains shown)
VH: EVQLVQSGAEVKKPGASVKVSCKASGYTFSDFDIDWVRQATGLGLEWMGWMNPNSGNTGVAPKFRGRVSMTFNTAIRTAYLELSSLRPDDTAVYFCARSSESEGITIGFDNWGQGTLVTVSS
VL: SYELTQPPSVSVSPGQTASIPCSGDKLGNRYACWYKQKPGQPPVLVIYQDNKRPSGISERYSGSNYGDTATLTITGTQAMDEADYYCQTWDSTTGSYVFGTGTKVTVLG
notes: Fully human monoclonal antibody from mRNA display; also called IL-TN-L7-C8
EC50 [1]: 0.517 nM
Potency (nM), IL-17-driven IL-6 production in HS27 cells [2]: 18 nM
Potency (nM), IL-17-driven IL-6 production in HS27 cells [3]: 2.6 nM
Potency (nM), IL-17-driven IL-6 production in HS27 cells [4]: 4.5 nM

B2: IL17-h5C5.3 (antibody, V domains shown)
VH: EVQLVQSGAEVKKPGASVKVSCKASGYTFTDYEFHWVRQAPGQGLEWIGVIHPGNGGTAYNQNFRDRATLTADKSTSTAYMELSSLRSEDTAVYYCTRFLTYEGYFDYWGQGTLVTVSS
VL: NIVMTQTPKFLLVSPGDRVTITCKASQSVSIDVGWFQQKPGQSPKLLIYHASNRYTGVPDRFTGSGYGTDFTFTVNTVQAEDLAVYFCQQDYSSPYTFGGGTKLELKR
notes: IgG; constant regions not specified
Potency (pM), IL-17 and TNF-alpha-driven IL-6 production in NIH3T3 cells [5]: 2520 pM
Potency (pM), IL-17-driven IL-6 production in HS27 cells [6]: 12 pM
Potency (pM), IL-17-driven IL-6 production in HS27 cells [7]: 5 pM
EC50 [8]: 1.37 nM

B3: m5C5.hIgG1 (antibody, V domains shown)
VH: QVQLQQSGAELVRPGASVKLSCKALGYTFTDYEFHWVKQTPVHGLEWIGVIHPGNGGTAYNQNFRDKATLTADKSSSTAYMELSSLTSEDSGVYYCTRFLTYEGYFDYWGQGTALTVSS
VL: NIVMTQTPKFLLVSPGDRVTITCKASQSVSIDVGWFQQKPGQSPKLLIYHASNRYTGVPDRFTGSGYGTDFTFTVNTVQAEDLAVYFCQQDYSSPYTFGGGTKLELKR
Potency (pM), IL-17 and TNF-alpha-driven IL-6 production in NIH3T3 cells [5]: 4910 pM
Potency (pM), IL-17-driven IL-6 production in HS27 cells [7]: 11 pM

B4: IL17-h5C5.9 (antibody, V domains shown)
VH: EVQLVQSGAEVKKPGASVKVSCKASGYTFTDYEFHWVRQAPGQGLEWIGVIHPGNGGTAYNQNFRDRATLTADKSTSTAYMELSSLRSEDTAVYYCTRFLTYEGYFDYWGQGTLVTVSS
VL: DIQMTQSPSSLSASVGDRVTITCKASQSVSIDVGWFQQKPGKSPKLLIYHASNRYTGVPSRFSGSGSGTDFTFTISSLQPEDFATYFCQQDYSSPYTFGQGTKLEIKR
notes: IgG; constant regions not specified; also called h5C5.9 (VH.1b-Vk.1a)
Potency (pM), IL-17 and TNF-alpha-driven IL-6 production in NIH3T3 cells [5]: 5680 pM
Potency (pM), IL-17-driven IL-6 production in HS27 cells [6]: 19 pM
Potency (pM), IL-17-driven IL-6 production in HS27 cells [7]: 14 pM
Kd [9]: 1.21 nM
koff [9]: 0.00115 s⁻¹
kon [9]: 950000 M⁻¹ s⁻¹
Kd [10]: 2.09 nM
koff [10]: 0.000582 s⁻¹
kon [10]: 279000 M⁻¹ s⁻¹
Kd [11]: 8.48 nM
koff [11]: 0.00958 s⁻¹
kon [11]: 1.13e+06 M⁻¹ s⁻¹
Kd [12]: 0.228 nM
koff [12]: 0.000239 s⁻¹
kon [12]: 1.05e+06 M⁻¹ s⁻¹
Kd [13]: 0.44 nM
koff [13]: 0.000449 s⁻¹
kon [13]: 1.02e+06 M⁻¹ s⁻¹
EC50 [8]: 0.03 nM

B5: IL17-h5C5.8 (antibody, V domains shown)
VH: EVQLVQSGAEVKKPGASVKVSCKASGYTFTDYEFHWVRQAPGQGLEWMGVIHPGNGGTAYNQNFRDRVTITADKSTSTAYMELSSLRSEDTAVYYCARFLTYEGYFDYWGQGTLVTVSS
VL: DIQMTQSPSSLSASVGDRVTITCKASQSVSIDVGWFQQKPGKSPKLLIYHASNRYTGVPSRFSGSGSGTDFTFTISSLQPEDFATYFCQQDYSSPYTFGQGTKLEIKR
notes: IgG; constant regions not specified; also called h5C5.8 (VH.1-Vk.1a)
Potency (pM), IL-17 and TNF-alpha-driven IL-6 production in NIH3T3 cells [5]: 13100 pM
Potency (pM), IL-17-driven IL-6 production in HS27 cells [6]: 20 pM
Potency (pM), IL-17-driven IL-6 production in HS27 cells [7]: 17 pM
Kd [9]: 1.28 nM
koff [9]: 0.00121 s⁻¹
kon [9]: 948000 M⁻¹ s⁻¹
Kd [10]: 1.86 nM
koff [10]: 0.000531 s⁻¹
kon [10]: 285000 M⁻¹ s⁻¹
Kd [11]: 14.2 nM
koff [11]: 0.011 s⁻¹
kon [11]: 774000 M⁻¹ s⁻¹
Kd [12]: 0.217 nM
koff [12]: 0.000226 s⁻¹
kon [12]: 1.04e+06 M⁻¹ s⁻¹
Kd [13]: 0.393 nM
koff [13]: 0.000444 s⁻¹
kon [13]: 1.13e+06 M⁻¹ s⁻¹
EC50 [8]: 0.07 nM

B6: IL17-TN-L7-G9 (antibody, V domains shown)
VH: EVQLLESGGGVVQPGRSLRLSCAASGFIFSNYGMHWVRQAPGKGLEWVAVISYDGSNKYYADSVKGRFTISRDNSKNTLYLEMNSLRPEDTAVYYCAKVGASGDYYYSYGLDVWGQGTTVTVSS
VL: QSGLTQPPSASGTPGQTVSISCSGSNSNIGSHSVNWYQQVPGAAPKLLMYGIGQRPSGVPDRFSVSQSGTSASLAISGLQSEDEADYYCATWDDSLGGYVFGSGTKVTVLG
notes: Fully human monoclonal antibody from mRNA display
EC50 [1]: 0.165 nM
Potency (nM), IL-17-driven IL-6 production in HS27 cells [2]: 12 nM
Potency (nM), IL-17-driven IL-6 production in HS27 cells [3]: 2 nM
Potency (nM), IL-17-driven IL-6 production in HS27 cells [4]: 0.8 nM

B7: IL17-TN-L7-A7 (antibody, V domains shown)
VH: EVQLLESGGGVVQPGTFLRLSCAATGFTFSAYGMHWVRQAPGRGLEWVAVTSYDGSNKYYADSVKGRFTISRDNSKNTLYLEMNSLRPEDTAVYYCAKVGASGDYYYSYGLDVWGQGTMVTVSS
VL: QSGLTQPPSASGTPGQTVSISCSGSNSNIGSHSVNWYQQVPGAAPKLLMYGIGQRPSGVPDRFSVSQSGTSASLAISGLQSEDEADYYCATWDDSLGGYVFGSGTKVTVLG
notes: as for B6
EC50 [1]: 0.131 nM
Potency (nM), IL-17-driven IL-6 production in HS27 cells [2]: 12 nM
Potency (nM), IL-17-driven IL-6 production in HS27 cells [3]: 1.8 nM
Potency (nM), IL-17-driven IL-6 production in HS27 cells [4]: 1.8 nM

B8: IL17-B6-5 (antibody, V domains shown)
VH: EVQLVQSGAEVKKPGESVKISCKASGGSFRSYGISWVRQAPGQGLEWMGGITHFFGITDYAQKFQGRVTITADESTTTAYMELSGLTSDDTAVYYCAREPNDFWNGYYDTHDFDSWGQGTTVTVSS
VL: EIVLTQSPDFQSVTPKEKVTITCRASQNIGSELHWYQQKPDQSPKLLIKYASHSISGVPSRFSGSGSGTDFTLTINGLEAEDAATYYCHQSDTLPHTFGQGTKVDIK
notes: also called pJP243 B6.1 #5VH / pJP244 B6.1 #5VK
EC50 [1]: 0.22 nM
Potency (pM), IL-17 and TNF-induced IL-6 secretion from NIH3T3 cells [14]: 73 pM
Potency (pM), IL-17 and TNF-induced IL-6 secretion from NIH3T3 cells [15]: 320 pM
Potency (pM), IL-17-driven IL-6 production in HS27 cells [16]: 12 pM
Potency (pM), IL-17 and TNF-induced IL-6 secretion from NIH3T3 cells [17]: 64 pM
Potency (pM), IL-17-driven IL-6 production in HS27 cells [18]: 134 pM
Potency (pM), IL-17-driven IL-6 production in HS27 cells [19]: 18 pM

B9: IL17-B6-16 (antibody, V domains shown)
VH: EVQLVQSGAEVKMPGSSLKISCKASGGSFRGYGISWVRQAPGQGLEWMGGITPFFGWADYAQKFQGRVTITADESTTTAYMELSGLTSDDTAVYYCARDPNEFWNGYYDTHHFDYWGQGTTVTVSS
VL: EIVLTQSPDFQSVTPKEKVTITCRASQDIGSALHWYQQKPDQSPKLLIKYASHSVSGVPSRFSGSGSGTDFTLTINGLEAEDAGTYYCHQSDILPHTFGPGTKVDIK
notes: also called pJP247 B6.1 #16VH / pJP248 B6.1 #16Vk
EC50 [1]: 0.16 nM
Potency (pM), IL-17 and TNF-induced IL-6 secretion from NIH3T3 cells [14]: 167 pM
Potency (pM), IL-17-driven IL-6 production in HS27 cells [16]: 13 pM
Potency (pM), IL-17-driven IL-6 production in HS27 cells [18]: 114 pM
Potency (pM), IL-17-driven IL-6 production in HS27 cells [19]: 26 pM

B10: IL17-TN-K7-B6 (antibody, V domains shown)
VH: EVQLVQSGAEVKKPGESLKISCKASGGSFRSYGISWVRQAPGQGLEWMGGITPILGTANYAQKFQGRVTITADESTTTAYMELSGLTSDDTAVYYCAREPNDFWNGYYTTHHFDYWGQGTPVTVSS
VL: DVVMTQSPDFQSVTPKEKVTITCRASQNIGSALHWYQQKPDQSPKLLIKYASQSISGVPSRFSGSGSGTDFTLTINGLEAEDAGTYYCHQSTSLPHTFGQGTKLDIKR
notes: as for B6
EC50 [1]: 0.447 nM
Potency (nM), IL-17-driven IL-6 production in HS27 cells [2]: 18 nM
Potency (nM), IL-17-driven IL-6 production in HS27 cells [3]: 8.1 nM
Potency (nM), IL-17-driven IL-6 production in HS27 cells [4]: 4.5 nM
